Assay results reported in PMC6191538.

Target: Hoc- Soc- phage T4 particles (capsid) (phage T4) (UniProt P13332)
Assay: co-sedimentation

Soc-PA (93 kDa)
BC50 (half-maximal binding concentration): 1140 nM
